Assay results: article PMC10029098

Assays:
[1] = biological target: PD1 (Homo sapiens), Q15116; assay: ELISA PD1/PDL1 blocking; conditions: modification not given
[2] = biological target: PD1 (Homo sapiens), Q15116; assay: competitive binding kinetics; conditions: modification not given

Chain of PD1 (Homo sapiens), Q15116 (Q15116 25-170): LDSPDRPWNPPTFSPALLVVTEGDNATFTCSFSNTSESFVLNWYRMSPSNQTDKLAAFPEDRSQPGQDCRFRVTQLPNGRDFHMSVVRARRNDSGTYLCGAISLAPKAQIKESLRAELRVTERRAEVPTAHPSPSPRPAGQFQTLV

RWCARRDYRFDMGFDYWGWE [peptide 1c]
IC50 [1]: 3700 nM

RWVARRDYRFDMGFDYWVWE [hairpin 1e]
IC50 [1]: 290 nM | Ki [2]: 41 nM
